Reference: paper PMC12376267 (Chemistry (Weinheim an Der Bergstrasse, Germany), 2025)
Positions of bridges follow the written chain, without caps; N, C: chain ends.

T1: Recombinant mouse NELL2 (neural epidermal growth factor-like like 2) (mouse, UniProt Q61220 25-819)
T1 sequence (looked up): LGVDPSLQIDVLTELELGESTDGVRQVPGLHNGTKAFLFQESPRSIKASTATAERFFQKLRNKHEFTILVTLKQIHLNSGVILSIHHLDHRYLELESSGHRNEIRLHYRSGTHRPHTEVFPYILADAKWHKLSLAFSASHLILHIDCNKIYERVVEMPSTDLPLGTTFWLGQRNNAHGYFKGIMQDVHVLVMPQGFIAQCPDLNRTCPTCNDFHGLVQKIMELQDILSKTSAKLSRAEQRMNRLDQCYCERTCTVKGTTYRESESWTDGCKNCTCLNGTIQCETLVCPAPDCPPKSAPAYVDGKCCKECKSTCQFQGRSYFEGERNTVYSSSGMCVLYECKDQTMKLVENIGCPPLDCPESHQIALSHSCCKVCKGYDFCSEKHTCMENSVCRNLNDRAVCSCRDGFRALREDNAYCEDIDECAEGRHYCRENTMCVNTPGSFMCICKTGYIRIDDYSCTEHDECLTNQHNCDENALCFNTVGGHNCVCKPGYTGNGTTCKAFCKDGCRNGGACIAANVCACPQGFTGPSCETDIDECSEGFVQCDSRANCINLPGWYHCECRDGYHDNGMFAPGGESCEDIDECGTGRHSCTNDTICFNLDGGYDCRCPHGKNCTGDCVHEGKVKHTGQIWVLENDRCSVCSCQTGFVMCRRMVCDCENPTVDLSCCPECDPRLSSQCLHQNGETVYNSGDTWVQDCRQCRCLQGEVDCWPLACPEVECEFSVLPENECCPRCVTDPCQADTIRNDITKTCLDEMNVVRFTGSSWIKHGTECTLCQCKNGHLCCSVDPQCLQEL

B1: Synthetic NICOL with the native SS bond pairing 3 (mouse NELL2-interacting cofactor for lumicrine signaling) (natural protein)
chain: EPATGSAVPAQSRPCVDCHAFEFMQRALQDLRKTAYSLDARTETLLLQAERRALCACWPAGR
modifications: disulfide 15-55, 18-57
B2: Synthetic NICOL with the SS isomer 4 (mouse NICOL, non-native SS bond pairing) (natural protein)
chain: B1 chain
modifications: disulfide 15-57, 18-55

Biological target: T1, Recombinant mouse NELL2 (neural …)
Test: SPR

Binder | Kd | koff | kon
B1 | 61.7 nM | 0.00134 s⁻¹ | 23500 M⁻¹ s⁻¹
B2 | 145 nM | 0.00157 s⁻¹ | 13800 M⁻¹ s⁻¹
